Assay results as given in US20210324099A1 (Chugai, published 2021).

T1: hFcgRIIb (human, UniProt P31994 43-217)
T1 construct: extracellular domain; also called human FcγRIIb
T1 sequence (looked up): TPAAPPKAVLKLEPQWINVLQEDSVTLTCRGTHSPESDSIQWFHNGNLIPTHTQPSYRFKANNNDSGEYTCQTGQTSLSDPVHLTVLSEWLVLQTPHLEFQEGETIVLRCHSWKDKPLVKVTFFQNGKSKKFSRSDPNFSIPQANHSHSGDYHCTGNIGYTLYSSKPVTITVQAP

T2: hFcgRIIaR (human, UniProt P12318 34-217)
T2 construct: extracellular domain; also called human FcγRIIa type R (R131)
T2 sequence (looked up): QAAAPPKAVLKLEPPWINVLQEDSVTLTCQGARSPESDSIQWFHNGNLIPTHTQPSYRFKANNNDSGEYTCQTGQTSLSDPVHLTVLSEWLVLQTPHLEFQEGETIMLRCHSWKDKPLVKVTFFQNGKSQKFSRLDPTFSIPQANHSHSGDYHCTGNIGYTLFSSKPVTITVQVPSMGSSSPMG

T3: hFcgRIIaH (human, UniProt P12318 34-217)
T3 construct: extracellular domain; also called human FcγRIIa type H (H131)
T3 sequence (looked up): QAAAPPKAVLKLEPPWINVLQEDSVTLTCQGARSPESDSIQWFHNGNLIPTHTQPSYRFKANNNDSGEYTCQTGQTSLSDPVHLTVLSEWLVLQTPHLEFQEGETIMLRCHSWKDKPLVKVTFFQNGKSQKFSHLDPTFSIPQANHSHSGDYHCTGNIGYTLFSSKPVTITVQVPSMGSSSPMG


What was measured:
hCD137.2.3-F.G1d = target: T4, hCD137.2.3-F.G1d (human); experiment: ELISA; 500 uM kynurenine, Ab 10 ug/mL
T4 construct: Portion of the human CD137 extracellular region linked to an antibody constant region
Method: (§1) Whether the obtained antibodies bind to antigens having a partial sequence of CD137 was assessed by ELISA. […] After the unbound antigens were removed from the plates by washing each well of the plates with the Wash Buffer, the wells were blocked with 50 μL of Blocking Buffer (BlockAce-containing TBS) for one hour or more. To wells from which the Blocking Buffer was removed, each well was supplemented with 10 μL of the purified antibodies prepared at 10 μg/mL in TBS with a final concentration of 500 μM L-kynurenine or TBS with a final concentration of 500 μM kynurenine, and it was left at rest for one hour. AP-conjugated anti-human Kappa antibodies (BIOSOURCE) diluted in TBS with a final concentration of 500 μM kynurenine were added to each well after washing with the Wash Buffer containing a final concentration of 500 μM kynurenine (TBS with 0.1% Tween20). After one hour of incubation, the BluePhos phosphate substrate (KPL) was added after washing with Wash Buffer containing 500 μM kynurenine. Color development of the solution in each well was measured by absorbance at 620 nm after the color development reaction of the solution in each well was stopped by adding the BluePhos Stop Solution. The ratio of absorbance by setting the value of the well with an antibody concentration of 0 μg/mL to 1 is shown.

hCD137.1.2-F.G1d = target: T5, hCD137.1.2-F.G1d (human); experiment: ELISA; 500 uM kynurenine, Ab 10 ug/mL
T5 construct: Portion of the human CD137 extracellular region linked to an antibody constant region
Method: as §1

hCD137.1-F-G1d = target: T6, hCD137.1-F-G1d (human); experiment: ELISA; 500 uM kynurenine, Ab 10 ug/mL
T6 construct: Portion of the human CD137 extracellular region linked to an antibody constant region
Method: as §1

hCD137.3.4-F.G1d = target: T7, hCD137.3.4-F.G1d (human); experiment: ELISA; 500 uM kynurenine, Ab 10 ug/mL
T7 construct: Portion of the human CD137 extracellular region linked to an antibody constant region
Method: as §1

human FcRn = human FcRn (human, UniProt P55899 24-290; P61769 21-119, limits assumed); experiment: SPR 25C pH 6.0, steady state;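 note: antibody captured on chip via anti-human Fab-lambda ligand, human FcRn injected as analyte in 50 mM phosphate buffer with 150 mM NaCl and P20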
Method: Biacore T200 (GE Healthcare) was used to assess the binding activity to human FcRn. Measurement was performed at 25° C. using 50 mM phosphate, 150 mM NaCl, 0.05 w/v %-P20, pH 6.0 as buffer. […] About 400 RU of antibody was captured using a sensor chip immobilized with CaptureSelect™ Human Fab-lambda Kinetics Biotin Conjugate (Thermo Fisher Scientific) as a molecule for ligand capturing, followed by the binding of human FcRn diluted in measuring buffer. The activity of the respective antibodies to bind FcRn was assessed by calculating KD (mol/L) by the steady-state model using Biacore T200 Evaluation Software 2.0.

hFcgRIa [1] = target: T8, hFcgRIa (human, UniProt P12314 16-292); experiment: SPR 25C
T8 construct: extracellular domain; also called human FcγRIa; FcγRI
Method: (§2) Biacore T200 (GE Healthcare) was used to evaluate the binding activity to the respective human Fcγ receptor (hereafter referred to as FcγR). Measurement was performed at 25° C. using 50 mM phosphate, 150 mM NaCl, 0.05 w/v %-P20, pH 7.4 as buffer. About 1000 RU of antibody was captured using a sensor chip immobilized with CaptureSelect™ Human Fab-lambda Kinetics Biotin Conjugate (Thermo Fisher Scientific) as a molecule for ligand capturing. Human FcγR was diluted to 8 nM for FcγRIa and 1000 nM for other FcγR in the measurement buffer, and it was interacted to the captured antibody. The binding activity of each antibody to FcγR was assessed by calculating the binding amount of FcγR (RU) per unit amount of antibody using Biacore T200 Evaluation Software 2.0.

hFcgRIIb [2] = target: T1, hFcgRIIb; experiment: SPR 25C
Method: as §2

hFcgRIIaR [3] = target: T2, hFcgRIIaR; experiment: SPR 25C
Method: as §2

hFcgRIIaH [4] = target: T3, hFcgRIIaH; experiment: SPR 25C
Method: as §2

hFcgRIIIaV [5] = target: T9, hFcgRIIIaV (human, UniProt P08637 17-208); experiment: SPR 25C
T9 construct: extracellular domain; also called human FcγRIIIa allotype V158
Method: as §2

hFcgRIIIaF [6] = target: T10, hFcgRIIIaF (human, UniProt P08637 17-208); experiment: SPR 25C
T10 construct: extracellular domain; also called human FcγRIIIa allotype F158
Method: as §2

hFcgRIa [7] = target: T8, hFcgRIa; experiment: SPR 25C; relative to A375-G1T3/B167-Lamlib;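 note: SPR with antibody captured on an anti-human Fab-lambda chip, human FcγR analyte at 8 nM for FcγRIa or 1000 nM for the others, pH 7.4, FcγR RU per captured antibody unit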
hFcgRIIb [8] = target: T1, hFcgRIIb; experiment: SPR 25C; relative to A375-G1T3/B167-Lamlib;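 note: SPR with antibody captured on an anti-human Fab-lambda chip, human FcγR analyte at 8 nM for FcγRIa or 1000 nM for the others, pH 7.4, FcγR RU per captured antibody unit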
hFcgRIIaR [9] = target: T2, hFcgRIIaR; experiment: SPR 25C; relative to A375-G1T3/B167-Lamlib;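 note: SPR with antibody captured on an anti-human Fab-lambda chip, human FcγR analyte at 8 nM for FcγRIa or 1000 nM for the others, pH 7.4, FcγR RU per captured antibody unit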
hFcgRIIaH [10] = target: T3, hFcgRIIaH; experiment: SPR 25C; relative to A375-G1T3/B167-Lamlib;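 note: SPR with antibody captured on an anti-human Fab-lambda chip, human FcγR analyte at 8 nM for FcγRIa or 1000 nM for the others, pH 7.4, FcγR RU per captured antibody unit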
hFcgRIIIaV [11] = target: T9, hFcgRIIIaV; experiment: SPR 25C; relative to A375-G1T3/B167-Lamlib
hFcgRIIIaF [12] = target: T10, hFcgRIIIaF; experiment: SPR 25C; relative to A375-G1T3/B167-Lamlib
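Throughout, for binding per 1RU of antibody: biacore SPR with antibody captured on an anti-human Fab lambda chip, human FcγR injected at 1000 nM (FcγRIa at 8 nM) in pH 7.4 phosphate buffer.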

T9 sequence (P08637 17-208 F176V): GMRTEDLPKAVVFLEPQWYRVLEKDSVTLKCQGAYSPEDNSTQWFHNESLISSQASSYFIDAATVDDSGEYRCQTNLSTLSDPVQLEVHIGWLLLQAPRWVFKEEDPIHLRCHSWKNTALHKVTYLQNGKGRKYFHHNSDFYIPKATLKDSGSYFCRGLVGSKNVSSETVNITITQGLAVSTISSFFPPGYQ
T6 sequence (chain, as listed by the source limits assumed): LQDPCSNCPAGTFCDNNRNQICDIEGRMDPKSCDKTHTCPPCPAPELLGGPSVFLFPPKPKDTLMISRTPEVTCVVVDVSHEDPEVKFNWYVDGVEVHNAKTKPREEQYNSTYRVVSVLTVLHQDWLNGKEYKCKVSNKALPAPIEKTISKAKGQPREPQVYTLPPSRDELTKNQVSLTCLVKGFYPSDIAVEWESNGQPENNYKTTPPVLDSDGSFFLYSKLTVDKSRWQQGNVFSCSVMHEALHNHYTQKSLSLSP
T10 sequence (P08637 17-208): as the sequence (P08637 17-208 F176V) above, with V160F counted along it
T8 sequence (P12314 16-292): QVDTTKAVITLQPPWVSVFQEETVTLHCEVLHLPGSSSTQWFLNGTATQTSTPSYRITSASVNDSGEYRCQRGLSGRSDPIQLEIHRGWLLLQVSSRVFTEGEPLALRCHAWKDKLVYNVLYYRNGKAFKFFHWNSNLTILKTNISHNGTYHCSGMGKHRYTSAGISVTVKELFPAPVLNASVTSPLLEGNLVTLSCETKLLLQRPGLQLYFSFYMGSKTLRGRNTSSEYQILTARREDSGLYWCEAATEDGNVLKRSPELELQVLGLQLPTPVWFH
T5 sequence (chain, as listed by the source limits assumed): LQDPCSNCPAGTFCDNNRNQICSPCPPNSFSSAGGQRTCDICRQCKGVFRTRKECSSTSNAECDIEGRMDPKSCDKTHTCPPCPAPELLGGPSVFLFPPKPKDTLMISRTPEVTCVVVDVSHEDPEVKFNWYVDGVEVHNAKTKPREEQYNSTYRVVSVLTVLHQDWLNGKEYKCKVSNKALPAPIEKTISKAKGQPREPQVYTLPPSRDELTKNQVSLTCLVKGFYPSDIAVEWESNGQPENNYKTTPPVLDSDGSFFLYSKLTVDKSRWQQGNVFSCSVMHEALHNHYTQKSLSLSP
T4 sequence (chain, as listed by the source limits assumed): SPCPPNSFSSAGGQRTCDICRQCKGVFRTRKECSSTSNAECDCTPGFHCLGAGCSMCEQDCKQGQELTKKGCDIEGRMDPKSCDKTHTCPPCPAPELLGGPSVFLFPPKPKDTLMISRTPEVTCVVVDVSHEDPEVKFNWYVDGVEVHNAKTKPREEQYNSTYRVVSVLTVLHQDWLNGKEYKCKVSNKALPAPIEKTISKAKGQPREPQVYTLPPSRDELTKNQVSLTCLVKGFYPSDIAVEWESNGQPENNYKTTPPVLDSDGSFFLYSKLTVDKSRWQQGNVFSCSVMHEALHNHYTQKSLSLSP

Binder	absorbance ratio (hCD137.2.3-F.G1d)	absorbance ratio (hCD137.1.2-F.G1d)	absorbance ratio (hCD137.1-F-G1d)	absorbance ratio (hCD137.3.4-F.G1d)	Kd (human FcRn) [nM]	binding per 1RU of antibody (hFcgRIa [1]) [RU]	binding per 1RU of antibody (hFcgRIIb [2]) [RU]	binding per 1RU of antibody (hFcgRIIaR [3]) [RU]	binding per 1RU of antibody (hFcgRIIaH [4]) [RU]	binding per 1RU of antibody (hFcgRIIIaV [5]) [RU]	binding per 1RU of antibody (hFcgRIIIaF [6]) [RU]	relative binding amount (hFcgRIa [7])	relative binding amount (hFcgRIIb [8])	relative binding amount (hFcgRIIaR [9])	relative binding amount (hFcgRIIaH [10])	relative binding amount (hFcgRIIIaV [11])	relative binding amount (hFcgRIIIaF [12])
A375-SCF060a/B167-Lamlib (antibody, human IgG1, lambda, copies: 2 + 2) heavy: EVQLVESGGGLVKPGGSLRLSCAASGFTFSTFTMNWVRQAPGKGLEWVSSISSKSTYIEYADSFKVRFTISRDNAKNSLYLQMNSLRAEDTAVYYCARYGAKNFLNWVFDYWGQGTLVTVSSASTKGPSVFPLAPSSKSTSGGTAALGCLVKDYFPEPVTVSWNSGALTSGVHTFPAVLQSSGLYSLSSVVTVPSSSLGTQTYICNVNHKPSNTKVDKRVEPKSCDKTHTCPPCPAPELWNGPSVFLFPPKPKDTLMISRTPEVTCVVVDVSDEDPEVKFNWYVDGVEVHNAKTKPREELYNSTYRVVSVLTVLHRDWLNGKEYKCKVSNTALPKPIEKTISKAKGQPREPQVYTLPPSREEMTKNQVSLTCLVKGFYPSDIAVEWESNGQPENNYKTTPPVLDSDGSFFLYSKLTVDKSRWQQGNVFSCSVMHEALHNHYTQKSLSLSP light: QSALTQPPSASGSPGQTVTISCTGTRYDVGYYEYVSWYQQHPGKAPKLMIYETSKRLSGVPDRFSGSKSGNTASLTVSGLQAEDEADYYCSSYRYEHQVSFGGGTKLTVLGQPKAAPSVTLFPPSSEELQANKATLVCLISDFYPGAVTVAWKADSSPVKAGVETTTPSKQSNNKYAASSYLSLTPEQWKSHRSYSCQVTHEGSTVEKTVAPTECS					1010	0.0021	0.0472	0.0459	0.0463	0.0008	0.0011	0.03	4.31	0.99	0.82	0.01	0.05
A375-TT16/B167-Lamlib (antibody, human IgG1, lambda, copies: 2 + 2) heavy: EVQLVESGGGLVKPGGSLRLSCAASGFTFSTFTMNWVRQAPGKGLEWVSSISSKSTYIEYADSFKVRFTISRDNAKNSLYLQMNSLRAEDTAVYYCARYGAKNFLNWVFDYWGQGTLVTVSSASTKGPSVFPLAPSSKSTSGGTAALGCLVKDYFPEPVTVSWNSGALTSGVHTFPAVLQSSGLYSLSSVVTVPSSSLGTQTYICNVNHKPSNTKVDKKVEPKSCDKTHTCPPCPAPEYLGDDSVFLFPPKPKDVLMISRTPEVTCVVVDVSHEDPEVKFNWYVDGVEVHNAKTKPREEQYNSTYRVVSVLPVLHQDWLNGKEYKCKVSNKALPKPIEKTISKAKGQPREPQVYTLPPSREEMTKNQVSLTCLVKGFYPSDIAVEWESNGQPENNYKTTPPVLDSDGSFFLYSKLTVDKSRWQQGNVFSCSVMHEALHNHYTQKSLSLSP light: QSALTQPPSASGSPGQTVTISCTGTRYDVGYYEYVSWYQQHPGKAPKLMIYETSKRLSGVPDRFSGSKSGNTASLTVSGLQAEDEADYYCSSYRYEHQVSFGGGTKLTVLGQPKAAPSVTLFPPSSEELQANKATLVCLISDFYPGAVTVAWKADSSPVKAGVETTTPSKQSNNKYAASSYLSLTPEQWKSHRSYSCQVTHEGSTVEKTVAPTECS					1510	0.0034	0.109	0.0359	0.0126	-0.0002	0.0001	0.04	9.94	0.77	0.22	0	0
A375-TT14/B167-Lamlib (antibody, human IgG1, lambda, copies: 2 + 2) heavy: EVQLVESGGGLVKPGGSLRLSCAASGFTFSTFTMNWVRQAPGKGLEWVSSISSKSTYIEYADSFKVRFTISRDNAKNSLYLQMNSLRAEDTAVYYCARYGAKNFLNWVFDYWGQGTLVTVSSASTKGPSVFPLAPSSKSTSGGTAALGCLVKDYFPEPVTVSWNSGALTSGVHTFPAVLQSSGLYSLSSVVTVPSSSLGTQTYICNVNHKPSNTKVDKKVEPKSCDKTHTCPPCPAPEYLGGDSVFLFPPKPKDVLMISRTPEVTCVVIDVSHEDPEVKFNWYVDGVEVHNAKTKPREEQYNSTYRVVSVLPVLHQDWLNGKEYKCKVSNKALPKPIEKTISKAKGQPREPQVYTLPPSREEMTKNQVSLTCLVKGFYPSDIAVEWESNGQPENNYKTTPPVLDSDGSFFLYSKLTVDKSRWQQGNVFSCSVMHEALHNHYTQKSLSLSP light: QSALTQPPSASGSPGQTVTISCTGTRYDVGYYEYVSWYQQHPGKAPKLMIYETSKRLSGVPDRFSGSKSGNTASLTVSGLQAEDEADYYCSSYRYEHQVSFGGGTKLTVLGQPKAAPSVTLFPPSSEELQANKATLVCLISDFYPGAVTVAWKADSSPVKAGVETTTPSKQSNNKYAASSYLSLTPEQWKSHRSYSCQVTHEGSTVEKTVAPTECS					1770	0.0045	0.0805	0.0067	0.0042	0.0003	0	0.05	7.34	0.14	0.07	0	0

Second part, the binder after the results:

absorbance ratio (hCD137.2.3-F.G1d)	absorbance ratio (hCD137.1.2-F.G1d)	absorbance ratio (hCD137.1-F-G1d)	absorbance ratio (hCD137.3.4-F.G1d)	Kd (human FcRn) [nM]	binding per 1RU of antibody (hFcgRIa [1]) [RU]	binding per 1RU of antibody (hFcgRIIb [2]) [RU]	binding per 1RU of antibody (hFcgRIIaR [3]) [RU]	binding per 1RU of antibody (hFcgRIIaH [4]) [RU]	binding per 1RU of antibody (hFcgRIIIaV [5]) [RU]	binding per 1RU of antibody (hFcgRIIIaF [6]) [RU]	relative binding amount (hFcgRIa [7])	relative binding amount (hFcgRIIb [8])	relative binding amount (hFcgRIIaR [9])	relative binding amount (hFcgRIIaH [10])	relative binding amount (hFcgRIIIaV [11])	relative binding amount (hFcgRIIIaF [12])	Binder
1.1	1.2	1															dBBK026-P253 (antibody, human IgG1, kappa, V domains shown) VH: QVQLVQSGAEVKKPGSSVKVSCKASGGEFSNYFISWVRQAPGQGLEWMGMVHPIEGWAVYAQKFQGRVTITADESTSTAYMELSSLRSEDTAVYYCARDRPVFCCPRGAFDIWGQGTLVTVSS VL: DIVMTQSPLSLPVTPGEPASISCRSSQSLVSPGDNTFLSWYLQKPGQSPQLLIYEIERRFYGVPDRFSGSGSGTDFTLKISRVEAEDVGVYYCMQASTFPRTFGQGTKVEIKR
1.2	1.4	1.2															dBBK060-P253 (antibody, human IgG1, kappa, V domains shown) VH: QVQLVQSGAEVKKPGSSVKVSCKASGGDFSNYVISWVRQAPGQGLEWMGFINPIYGAAGYAQKFQGRVTITADESTSTAYMELSSLRSEDTAVYYCARDEPVASLPHGAFDIWGQGTLVTVSS VL: DIVMTQSPLSLPVTPGEPASISCRSSQSLVDPWGNTFLSWYLQKPGQSPQLLIYEISNRFYGVPDRFSGSGSGTDFTLKISRVEAEDVGVYYCMQAKDFPRTFGPGTKVEIKR
		1.8	1.2														dBBK070-P253 (antibody, human IgG1, kappa, V domains shown) VH: QVQLVQSGAEVKKPGSSVKVSCKASGGWFSHYSISWVRQAPGQGLEWMGVVWPIRSFATYAQKFQGRVTITADESTSTAYMELSSLRSEDTAVYYCARDNPVTSWPHGAFDIWGQGTLVTVSS VL: DIVMTQSPLSLPVTPGEPASISCRSSQSLVRPFGNTFLSWYLQKPGQSPQLLIYEISTRFYGVPDRFSGSGSGTDFTLKISRVEAEDVGVYYCMQAHQFPRTFGQGTKVEIKR
	1.2	1.2															dBBK051-P253 (antibody, human IgG1, kappa, V domains shown) VH: QVQLVQSGAEVKKPGSSVKVSCKASGGGFSSYGISWVRQAPGQGLEWMGALFPISSQASYAQKFQGRVTITADESTSTAYMELSSLRSEDTAVYYCARDRPVDYVPHGAFDIWGQGTLVTVSS VL: DIVMTQSPLSLPVTPGEPASISCRSSQSLVSPGDNTFLSWYLQKPGQSPQLLIYEIERRFYGVPDRFSGSGSGTDFTLKISRVEAEDVGVYYCMQASTFPRTFGQGTKVEIKR
	1.2	1.3															dBBK101-P253 (antibody, human IgG1, kappa, V domains shown) VH: QVQLVQSGAEVKKPGSSVKVSCKASGGAFSYYLISWVRQAPGQGLEWMGFVDPIRGGAFYAQKFQGRVTITADESTSTAYMELSSLRSEDTAVYYCARDRPVNAAPRGAFDIWGQGTLVTVSS VL: DIVMTQSPLSLPVTPGEPASISCRSSQSLVGDRGNTYLSWYLQKPGQSPQLLIYEIGSIFYGVPDRFSGSGSGTDFTLKISRVEAEDVGVYYCMQAAEFPRTFGQGTKVEIKR
